Source: patent publication US20220227866A1 (VELOSBIO, published 2022)
Several values for one entry are separate records, joined by “and”; a condition that tells them apart may be missing. Equal values may be shown once.

What was measured:
[1] = molecular target: T1, recombinant human ROR1 extracellular domain (human, UniProt Q01973 30-406); assay: ELISA, immobilised ROR1 ECD, construct titrated
T1 construct: Bought (Acro Biosystems cat. R01-H522Y); whole entry named; also called ROR1-ECD; immobilized ROR1
T1 sequence (Q01973 30-406 limits assumed): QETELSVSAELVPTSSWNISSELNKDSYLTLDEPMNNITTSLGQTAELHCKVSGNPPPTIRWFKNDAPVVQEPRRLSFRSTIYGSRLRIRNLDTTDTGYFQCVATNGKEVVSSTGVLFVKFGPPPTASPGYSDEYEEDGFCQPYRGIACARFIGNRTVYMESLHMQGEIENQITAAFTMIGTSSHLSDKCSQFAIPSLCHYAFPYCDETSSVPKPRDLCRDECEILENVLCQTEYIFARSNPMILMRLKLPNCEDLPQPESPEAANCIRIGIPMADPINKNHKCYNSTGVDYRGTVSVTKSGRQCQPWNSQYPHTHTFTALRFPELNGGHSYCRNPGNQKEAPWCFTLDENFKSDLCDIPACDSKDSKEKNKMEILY
Protocol: A 96-well Costar-3366 plate was coated with 50 μL/well of 2 μg/mL […] (Acro Biosystems cat. #R01-H522Y) in PBS overnight at 4° C. The plate was rinsed once with PBS containing 0.05% Tween 20 (PBS-T) and blocked with 100 μL/well of 5% non-fat milk in PBS (5% M-P) for 1 h at 25° C. Antibody samples were serially diluted 2-fold using 5% M-P and were incubated for 1 h at 25° C. (50 μL/well). The plate was washed three times with PBS-T and 50 μL/well anti-human kappa, HRP conjugate (Southern Biotech cat. #2060-05) diluted 10,000-fold in 5% M-P was added for 1 h at 25° C. The plate was washed three times with PBS-T, developed with 50 μL/well 1-Step Ultra TMB-ELISA (Thermo Scientific cat. #34028). The reaction was terminated by the addition of 2 N H₂SO₄ and the A450 was determined using a Spectramax plate reader.
Next, the binding of bispecific binding molecules to ROR was characterized by ELISA using recombinantly-expressed extracellular domain of RORL. ROR was immobilized on a microtiter plate, the bispecific binding molecules were titrated, and binding was quantitated with an anti-human kappa-HRP reagent. Consistent with the cell binding data, all constructs bound ROR1 in a concentration-dependent manner (FIG. 6). Moreover, monovalent ROR1 constructs 13-15 bound less tightly than all but two of the bivalent constructs.

[2] = molecular target: T2, human ROR1 on cells (human, UniProt Q01973 30-937); assay: flow cytometry on JeKo-1 cells
T2 construct: Cell-surface ROR1; also called ROR1-transfected MEC cells; JeKo-1 cells
T2 sequence (Q01973 30-937 limits assumed): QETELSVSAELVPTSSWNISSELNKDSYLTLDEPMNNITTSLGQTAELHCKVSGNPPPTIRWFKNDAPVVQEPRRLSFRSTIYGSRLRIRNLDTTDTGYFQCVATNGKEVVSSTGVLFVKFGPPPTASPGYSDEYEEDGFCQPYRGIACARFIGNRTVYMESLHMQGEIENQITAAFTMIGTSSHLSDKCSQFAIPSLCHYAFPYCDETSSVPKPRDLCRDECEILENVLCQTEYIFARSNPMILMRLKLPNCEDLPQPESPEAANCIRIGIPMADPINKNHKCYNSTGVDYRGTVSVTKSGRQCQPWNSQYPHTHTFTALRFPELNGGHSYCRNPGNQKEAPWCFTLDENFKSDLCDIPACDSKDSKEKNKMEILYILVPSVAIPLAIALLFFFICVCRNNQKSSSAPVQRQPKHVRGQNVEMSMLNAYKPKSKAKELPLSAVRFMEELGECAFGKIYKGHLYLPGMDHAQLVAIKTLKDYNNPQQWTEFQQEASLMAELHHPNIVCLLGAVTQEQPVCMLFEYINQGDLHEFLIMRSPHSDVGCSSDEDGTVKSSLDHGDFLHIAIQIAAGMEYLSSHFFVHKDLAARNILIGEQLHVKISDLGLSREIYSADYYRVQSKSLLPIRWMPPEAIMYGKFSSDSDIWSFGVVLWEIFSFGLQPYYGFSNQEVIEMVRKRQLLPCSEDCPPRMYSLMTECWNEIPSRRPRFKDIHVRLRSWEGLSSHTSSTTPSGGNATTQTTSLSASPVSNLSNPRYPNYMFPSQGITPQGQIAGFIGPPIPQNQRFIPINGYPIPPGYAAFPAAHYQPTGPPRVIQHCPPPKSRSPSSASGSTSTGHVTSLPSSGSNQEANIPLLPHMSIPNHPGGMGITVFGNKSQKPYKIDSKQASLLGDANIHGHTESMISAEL
Protocol: ROR1 binding was quantitated using both ROR1-transfected MEC cells and JeKo-1 cells. For each condition, 2.5E5 cells were used. The cells were placed in 50 μL of PBS with 2% FBS. Next, the cells were diluted with an equal volume of 2× stock of the test bispecific binding molecule. The cells and antibody were co-incubated on ice for 20 min. The cells were then washed 3 times with 300 μL of FACS buffer and were resuspended in 100 μL of anti-human Fc-PE conjugate antibody (Invitrogen cat. #12499882) and incubated on ice with reduced light for 20 min. Subsequently, the cells were washed 3 times with 300 μL of FACS buffer and fixed with 2% paraformaldehyde for 10 min at 25° C. The cells then were washed 2 times with 300 μL of FACS buffer and analyzed on a Miltenyi MACSQuant Analyzer.
The influence of ROR expression levels on binding of the bispecific constructs was assessed by flow cytometry using JeKo-1 cells. JeKo-1 cells express lower levels of ROR (˜13,000 copies/cell) than the ROR1-transfected MEC cells (˜56,000 copies/cell). All constructs bound JeKo-1 cells (FIG. 5). […] Specifically, monovalent ROR1 constructs generally bound more weakly than the bivalent constructs (FIG. 5, Panel A, compare constructs 14 and 15 with other constructs; FIG. 5, Panel C, compare constructs 15-17 with other constructs).

[3] = molecular target: T3, human CD3 on Jurkat cells (human, UniProt P09693 23-182; P04234 22-171; P07766 23-207); assay: flow cytometry on Jurkat cells
T3 construct: GenBank NP_000064.1, NP_000723.1, NP_000724.1
T3 sequence (P09693 23-182 limits assumed, chain 1 of 3): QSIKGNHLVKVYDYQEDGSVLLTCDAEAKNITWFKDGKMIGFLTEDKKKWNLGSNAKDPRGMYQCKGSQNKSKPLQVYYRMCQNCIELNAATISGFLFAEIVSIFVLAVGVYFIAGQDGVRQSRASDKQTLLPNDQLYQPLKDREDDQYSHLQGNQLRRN
T3 sequence (P04234 22-171 limits assumed, chain 2 of 3): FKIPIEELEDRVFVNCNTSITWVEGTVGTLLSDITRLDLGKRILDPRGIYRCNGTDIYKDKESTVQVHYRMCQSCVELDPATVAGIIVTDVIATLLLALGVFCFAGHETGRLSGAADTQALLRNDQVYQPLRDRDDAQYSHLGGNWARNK
T3 sequence (P07766 23-207 limits assumed, chain 3 of 3): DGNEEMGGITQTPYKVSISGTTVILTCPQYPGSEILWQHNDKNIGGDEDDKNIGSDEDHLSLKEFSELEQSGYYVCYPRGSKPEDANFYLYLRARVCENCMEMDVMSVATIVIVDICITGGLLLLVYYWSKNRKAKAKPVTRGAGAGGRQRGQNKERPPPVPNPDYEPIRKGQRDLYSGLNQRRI
Protocol: To quantitate CD3 binding, 2.5E5 Jurkat cells were used for each condition. A 2× stock of the cells was made by resuspending the cells to 5E6/mL by placing in 50 μL of PBS with 2% FBS. Next, the cells were diluted with an equal volume of 2× stock of the test bispecific binding molecule. The cells and antibody were co-incubated on ice for 20 min. The cells were then washed 3 times with 300 μL of FACS buffer and were resuspended in 100 μL of goat anti-human Fc-PE conjugate antibody (Invitrogen cat. #12499882) at 1:500 dilution and incubated on ice with reduced light for 20 min. The cells were then washed 3 times with 300 μL of FACS buffer and fixed with 2% paraformaldehyde for 10 min at 25° C. The cells were washed 2 times with 300 μL of FACS buffer and analyzed on a Miltenyi MACSQuant Analyzer.

[4] = molecular target: T4, soluble biotinylated human ROR1 extracellular domain (human, UniProt Q01973 30-406, biotinylated with EZ-Link Sulfo-NHS-LC-Biotin at a 1:5 molar ratio); assay: ELISA, captured construct, biotinylated ROR1 titrated
T4 construct: Acro Biosystems cat; whole entry named; also called b-ROR1; soluble b-ROR1
T4 sequence (Q01973 30-406 limits assumed): as the sequence (Q01973 30-406 limits assumed) above
Protocol: To measure the binding of bispecific constructs to soluble ROR1, a 96-well Costar-3366 plate was coated with 50 μL/well of 2 μg/mL goat anti-human kappa (Southern Biotech cat. #2060-01) in PBS overnight at 4° C. The plate was rinsed once with PBS-T, blocked with 100 μL/well 5% M-P for 1 h at 25° C., rinsed once with PBS-T, and 2 μg/mL of the bispecific binding molecule was added and incubated for 1 h at 25° C. The plate was washed three times with PBS-T. Biotinylated ROR1 was diluted serially, 3-fold in 5% M-P and was incubated for 1 h at 25° C. (50 μL/well). The plate was washed three times with PBS-T. To detect the binding of b-ROR1, 50 μL/well Neutravidin-HRP (Pierce cat. #31030) diluted 1:5000 in 1% BSA-PBS was added for 1 h at 25° C. The plate was washed three times with PBS-T, then developed with 50 μL/well 1-Step Ultra TMB-ELISA (Thermo Scientific cat. #34028). The reaction was terminated by the addition of 2 N H₂SO₄ and the A450 was determined using a Spectramax plate reader.
The stronger binding observed with bivalent constructs versus monovalent constructs in cell assays and ELISAs in which the antigen is immobilized is consistent with an avidity effect. To determine if this was the case, binding to soluble monomeric ROR1 was assessed by immobilizing the bispecific binding molecules on a microtiter plate coated with goat anti-human kappa antibody and titrating biotinylated RORL. All bispecific binding molecules were active in this format (FIG. 7), and in most cases, there were no notable differences between monovalent and bivalent constructs.

[5] = molecular target: T2, human ROR1 on cells; assay: cell-based or functional assay

| Binder | Kd [1] | EC50 (read off the curve) [2] | binding result [3] | Kd [4] | EC50, LDH release, ROR1-transfected MEC [5] | Max. LDH Release, ROR1-transfected MEC [5] |
| --- | --- | --- | --- | --- | --- | --- |
| Bispecific construct 14 (bispecific antibody, human IgG1, kappa, anti-CD3 scFv Ab9; ROR1 arm Ab1; valency 1/1) heavy 1: not shown heavy 2: QVQLVQSGAEVKKPGASVKVSCKASGYTFTRYTMHWVRQAPGQGLEWMGYINPSRGYTNYNQKFKDRVTLTTDKSSSTAYMELSSLRSEDTAVYYCARYYDDHYSLDYWGQGTLVTVSSGGGGSGGGGSGGGGSGGGGSDIQMTQSPSSLSASVGDRVTITCSASSSVSYMNWYQQKPGKAPKRLIYDTSKLASGVPSRFSGSGSGTDFTLTISSLQPEDFATYYCQQWSSNPFTFGQGTKLEIKEPKSSDKTHTCPPCPAPEAAGAPSVFLFPPKPKDTLMISRTPEVTCVVVDVSHEDPEVKFNWYVDGVEVHNAKTKPREEQYNSTYRVVSVLTVLHQDWLNGKEYKCKVSNKALPAPIEKTISKAKGQPREPQVYTLPPSRDELTKNQVSLSCAVKGFYPSDIAVEWESNGQPENNYKTTPPVLDSDGSFFLVSKLTVDKSRWQQGNVFSCSVMHEALHNHYTQKSLSLSPGK light: DIVMTQTPLSLPVTPGEPASISCRASKSISKYLAWYQQKPGQAPRLLIYSGSTLQSGIPPRFSGSGYGTDFTLTINNIESEDAAYYFCQQHDESPYTFGEGTKVEIKRTVAAPSVFIFPPSDEQLKSGTASVVCLLNNFYPREAKVQWKVDNALQSGNSQESVTEQDSKDSTYSLSSTLTLSKADYEKHKVYACEVTHQGLSSPVTKSFNRGEC | 0.408 nM | – | binds | 0.109 nM | 5 ng/mL and 40 pM | 48% |
| Bispecific construct 3 (bispecific antibody, human IgG1, kappa, anti-CD3 scFv Ab10 (SP34-based); ROR1 arm Ab1; valency 2/2) heavy: not shown light: DIVMTQTPLSLPVTPGEPASISCRASKSISKYLAWYQQKPGQAPRLLIYSGSTLQSGIPPRFSGSGYGTDFTLTINNIESEDAAYYFCQQHDESPYTFGEGTKVEIKRTVAAPSVFIFPPSDEQLKSGTASVVCLLNNFYPREAKVQWKVDNALQSGNSQESVTEQDSKDSTYSLSSTLTLSKADYEKHKVYACEVTHQGLSSPVTKSFNRGEC | 0.233 nM | – | binds | 0.147 nM | – | – |
| Bispecific construct 15 (bispecific antibody, human IgG1, kappa, anti-CD3 scFv Ab10 (SP34-based); ROR1 arm Ab1; valency 1/1) heavy 1: not shown heavy 2: EVQLVESGGGLVQPGGSLRLSCAASGFTFNTYAMNWVRQAPGKGLEWVARIRSKYNNYATYYADSVKGRFTISRDDSKNTLYLQMNSLRAEDTAVYYCVRHGNFGNSYVSYFAYWGQGTTVTVSSGGGGSGGGGSGGGGSGGGGSEIVVTQSPATLSVSPGERATLSCRSSTGAVTAANYANWVQEKPGQAFRGLIGGANKRAPGVPARFSGSLSGDEATLTISSLQSEDFAVYYCALFYSNLWVFGQGTKLEIKEPKSSDKTHTCPPCPAPEAAGAPSVFLFPPKPKDTLMISRTPEVTCVVVDVSHEDPEVKFNWYVDGVEVHNAKTKPREEQYNSTYRVVSVLTVLHQDWLNGKEYKCKVSNKALPAPIEKTISKAKGQPREPQVYTLPPSRDELTKNQVSLSCAVKGFYPSDIAVEWESNGQPENNYKTTPPVLDSDGSFFLVSKLTVDKSRWQQGNVFSCSVMHEALHNHYTQKSLSLSPGK light: DIVMTQTPLSLPVTPGEPASISCRASKSISKYLAWYQQKPGQAPRLLIYSGSTLQSGIPPRFSGSGYGTDFTLTINNIESEDAAYYFCQQHDESPYTFGEGTKVEIKRTVAAPSVFIFPPSDEQLKSGTASVVCLLNNFYPREAKVQWKVDNALQSGNSQESVTEQDSKDSTYSLSSTLTLSKADYEKHKVYACEVTHQGLSSPVTKSFNRGEC | 0.301 nM | – | binds | 0.157 nM | – | – |
| Bispecific construct 10 (bispecific antibody, human IgG1, kappa, disulfide-stabilized anti-CD3 scFv Ab8; ROR1 arm Ab1; valency 2/2) heavy: not shown light: DIVMTQTPLSLPVTPGEPASISCRASKSISKYLAWYQQKPGQAPRLLIYSGSTLQSGIPPRFSGSGYGTDFTLTINNIESEDAAYYFCQQHDESPYTFGEGTKVEIKRTVAAPSVFIFPPSDEQLKSGTASVVCLLNNFYPREAKVQWKVDNALQSGNSQESVTEQDSKDSTYSLSSTLTLSKADYEKHKVYACEVTHQGLSSPVTKSFNRGECGGGGSGGGGSQVQLVQSGGGVVQPGRSLRLSCKASGYTFTRYTMHWVRQAPGKCLEWIGYINPSRGYTNYNQKVKDRFTISRDNSKNTLYLQMDSLRAEDTAVYYCARYYDDHYSLDYWGQGTTVTVSSGGGGSGGGGSGGGGSGGGGSDIQMTQSPSSLSASVGDRVTITCSASSSVSYMNWYQQKPGKAPKRWIYDTSKLASGVPSRFSGSGSGTDFTFTISSLQPEDIATYYCQQWSSNPFTFGCGTKLEIK | 0.144 nM | – | binds | 0.094 nM | – | – |

Now those with a lower Kd [1], led by results:

| Kd [1] | EC50 (read off the curve) [2] | binding result [3] | Kd [4] | EC50, LDH release, ROR1-transfected MEC [5] | Max. LDH Release, ROR1-transfected MEC [5] | Binder |
| --- | --- | --- | --- | --- | --- | --- |
| 0.085 nM | ~0.02 µg/mL | binds | 0.105 nM | – | – | Bispecific construct 4 (bispecific antibody, human IgG1, kappa, disulfide-stabilized anti-CD3 scFv Ab8; ROR1 arm Ab1; valency 2/2) heavy: not shown light: DIVMTQTPLSLPVTPGEPASISCRASKSISKYLAWYQQKPGQAPRLLIYSGSTLQSGIPPRFSGSGYGTDFTLTINNIESEDAAYYFCQQHDESPYTFGEGTKVEIKRTVAAPSVFIFPPSDEQLKSGTASVVCLLNNFYPREAKVQWKVDNALQSGNSQESVTEQDSKDSTYSLSSTLTLSKADYEKHKVYACEVTHQGLSSPVTKSFNRGEC |
| 0.033 nM | – | binds | 0.082 nM | – | – | Bispecific construct 6 (bispecific antibody, human IgG1, kappa, disulfide-stabilized anti-CD3 scFv Ab10; ROR1 arm Ab1; valency 2/2) heavy: not shown light: DIVMTQTPLSLPVTPGEPASISCRASKSISKYLAWYQQKPGQAPRLLIYSGSTLQSGIPPRFSGSGYGTDFTLTINNIESEDAAYYFCQQHDESPYTFGEGTKVEIKRTVAAPSVFIFPPSDEQLKSGTASVVCLLNNFYPREAKVQWKVDNALQSGNSQESVTEQDSKDSTYSLSSTLTLSKADYEKHKVYACEVTHQGLSSPVTKSFNRGEC |
| 0.092 nM | – | binds | 0.073 nM | – | – | Bispecific construct 11 (bispecific antibody, human IgG1, kappa, disulfide-stabilized anti-CD3 scFv Ab9; ROR1 arm Ab1; valency 2/2) heavy: not shown light: DIVMTQTPLSLPVTPGEPASISCRASKSISKYLAWYQQKPGQAPRLLIYSGSTLQSGIPPRFSGSGYGTDFTLTINNIESEDAAYYFCQQHDESPYTFGEGTKVEIKRTVAAPSVFIFPPSDEQLKSGTASVVCLLNNFYPREAKVQWKVDNALQSGNSQESVTEQDSKDSTYSLSSTLTLSKADYEKHKVYACEVTHQGLSSPVTKSFNRGECGGGGSGGGGSQVQLVQSGAEVKKPGASVKVSCKASGYTFTRYTMHWVRQAPGQCLEWMGYINPSRGYTNYNQKFKDRVTLTTDKSSSTAYMELSSLRSEDTAVYYCARYYDDHYSLDYWGQGTLVTVSSGGGGSGGGGSGGGGSGGGGSDIQMTQSPSSLSASVGDRVTITCSASSSVSYMNWYQQKPGKAPKRLIYDTSKLASGVPSRFSGSGSGTDFTLTISSLQPEDFATYYCQQWSSNPFTFGCGTKLEIK |
